Assay results reported in patent publication US7951917 (Genentech, dated 2011).

Molecular target: T1, human thrombopoietin receptor, c-Mpl (human, UniProt P40238 26-491)
T1 construct: extracellular domain; Antigen of the library panning; also called MPL (human thrombopoietin receptor tyrosine kinase ECD)
T1 sequence (looked up): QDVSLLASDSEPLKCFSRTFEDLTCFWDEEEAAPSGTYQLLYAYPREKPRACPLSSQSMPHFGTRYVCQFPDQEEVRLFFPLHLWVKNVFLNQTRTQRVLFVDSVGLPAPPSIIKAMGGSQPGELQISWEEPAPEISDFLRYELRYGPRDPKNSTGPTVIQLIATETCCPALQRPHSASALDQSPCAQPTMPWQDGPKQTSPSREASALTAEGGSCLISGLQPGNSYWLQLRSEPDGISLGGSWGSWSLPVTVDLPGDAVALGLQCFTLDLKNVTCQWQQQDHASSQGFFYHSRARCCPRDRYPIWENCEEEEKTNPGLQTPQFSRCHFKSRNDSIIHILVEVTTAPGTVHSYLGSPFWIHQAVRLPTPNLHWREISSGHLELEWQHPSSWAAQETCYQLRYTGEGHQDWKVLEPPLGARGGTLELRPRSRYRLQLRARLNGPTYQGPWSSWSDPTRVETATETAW
Assay: scFv from panning of a human scFv phage library

binding result: binds
B1: anti-Mpl scFv, 12B5 (scFv)
scFv: QVQLVQSGGGLVRPGGSLSLSCAVSGITLRTYGMHWVRQAPGKGLEWVAGISFDGRSEYYADSVQGRFTISRDSSKNTLYLQMNSLRAEDTAVYYCARGAHYGFDIWGQGTMVTVSSGGGGTGGGGSGGGGSDIQMTQSPSTLSASIGDRVTITCRASEGIYHWLAWYQQKPGKAPKLLIYKASSLASGAPSRFSGSGSGTDFTLTISSLQPDDFATYYCQQYSNYPLTFGGGTKLEIK
